Source: patent US20230257458A1 (SUNSHINE LAKE PHARMA, published 2023)
Substitutions are numbered along the chain they refer to. Values belong to the binder of their own block, whether it stands above or below them.

Experiments:
IL-11 protein [1] = molecular target: T1, IL-11 protein (UniProt P20809 22-199, limits assumed); assay: ELISA, monoclonal hybridoma supernatant on IL-11
T1 construct: also called IL-11 antigen
T1 sequence (looked up): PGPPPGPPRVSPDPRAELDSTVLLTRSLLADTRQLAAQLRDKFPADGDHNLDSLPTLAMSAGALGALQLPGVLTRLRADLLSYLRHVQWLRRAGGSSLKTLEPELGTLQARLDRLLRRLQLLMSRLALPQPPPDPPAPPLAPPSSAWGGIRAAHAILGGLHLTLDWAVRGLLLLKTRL
Description: (§1) Cell lines with high secretion of specific antibody were selected for expanded culture and cryopreservation.

IL-11 protein [2] = molecular target: T1, IL-11 protein; assay: flow competition: IL-11 + antibody on IL-11R cells; lower = more blocking
Description: as §1

IL-11 protein [3] = molecular target: T1, IL-11 protein; assay: SPR (Biacore), antibody captured, 400 nM IL-11 as analyte
Experimental: (§2) The measure method included the steps of capturing the humanized antibody at a flow rate of 10 ul/min. […] Finally the chip was regenerated with 10 mM glycine buffer.

IL-11-Fc protein = molecular target: T2, IL-11-Fc protein (UniProt P20809 22-199, limits assumed); assay: flow competition: IL-11-Fc + antibody dilutions on membrane-IL-11R CHO cells
T2 construct: also called IL-11 recombinant protein with Fc tag; not shown: Fc tag
T2 sequence (looked up): T1 sequence (looked up)
Experimental: Then the plate was incubated with 1.5*10\hat{ }5 membrane-IL-11R CHO cells (100 ul/well) for 1 h at room temperature. After incubation, the plate was centrifuged at 1500 rpm for 5 min, washed three times with PBS, and 1:400 diluted flow secondary antibody Goat-anti-Fc-FITC (Abcam, ab98529) was added with 200 ul/well. Then, the plate was incubated at 4° C. for 1 h, centrifuged at 1500 rpm for 5 min, washed three times with PBS, resuspended cells in 180 ul PBS, and detected by flow cytometry.

IL-11 protein [4] = molecular target: T1, IL-11 protein; assay: SPR (Biacore), IgG captured, IL-11 6.25-400 nM as analyte
Experimental: as §2

B1: 3-15D5-6A1 (antibody, human IgG1, kappa, V domains shown)
VH: EVKLLESGGGLVQPGGSLKLSCAASGFDFRRYWMSWVRQAPGKGLEWIGQINPDSSMINYTPSLKDKFIISRDNAKNTLYLQMSEVRSEDTALYYCATYGHHATDSWGQGTSVTVSS
VL: DIVLTQSPASLAVSLGQRATISCRASESVDSYGNSFMHWYQQKPGQPPKLLIYRASNLESGIPARFSGSGSRTDFTLTINPVEADDVATYYCQQSNEDPFTFGSGTKLEIKR
- OD450 (IL-11 protein [1]): 1.51
- FITC Mean (IL-11 protein [2]): 13600

B2: 3-2B5-3D2 (antibody, human IgG1, kappa, V domains shown)
VH: QVQLKQSGPGLVLPSQSLSITCTVSGFSLTSYGVHWFRQSPGTGLEWLGVIWSGGITDYNATFIPRLSISKDNSKSQVFFKMNSLQADDTAIYYCARNFDGYYYSIDYWGQGTSVTVSS
VL: DIQMTQTTSSLSASLGDRVTISCRASQDISNSLNWYQQKPDGTVKLLIYYTSRLHSGVPSRFTGSGSGTDYSLTISNLEQEDIATYFCQQGNTLPLTFGAGTKLELKR
- OD450 (IL-11 protein [1]): 1.61
- FITC Mean (IL-11 protein [2]): 15300

B3: 3-5B2-2G4 (antibody, human IgG1, kappa, V domains shown)
VH: QIQLVQSGPELKKPGETVKISCKASGYTFTNYGMNWVKQAPGKGLKWMGWINTNTGEPTYAEEIKGRFAFSLETSASTAYLQINNLKNEDTATYFCSREGIYGMDSWGQGTSVTVSS
VL: SIVMTQTPKFLLVSAGDRVTITCKASQSVSNDVVWYRQKPGQSPKLLIYYASNRYIGVPDRFTGSGYGTDFTFTISTVQAEDLAVYFCQQDYYSPWTFGGGTKLEIKR
- OD450 (IL-11 protein [1]): 1.65
- FITC Mean (IL-11 protein [2]): 19800

B4: 3-7C9-1A6 (antibody, human IgG1, kappa, V domains shown)
VH: QVQLKQSGPGLVQPSQSLSITCTVSGFSLTNYGVHWVRQSPGKGLEWLGAIWRGGSTDYNAAFMSRLSITKDNSKSQVFFKMNSLQPDDTAIYYCAKNLYGPAAMDYWGQGTSVTVSS
VL: DIQMNQSPSSLSASLGDTITITCHANQNIYVWLSWYQQKPGNIPKLLIYEASNLHTGVPSRFSGSGSGTGFTLTISSLQPEDIATYYCQQGQSYPYTFGGGTKLEIKR
- OD450 (IL-11 protein [1]): 1.6
- FITC Mean (IL-11 protein [2]): 3150

B5: 3-9E1-3A2 (antibody, human IgG1, kappa, V domains shown)
VH: QIQLVQSGPELKKPGETVNISCRASGDTFTNYAVNWVKQAPGKGLKWMGWIDTYTGDPTYADDLKGRFAFSLETSATTAYLQINNLKNEDTATYFCAGDTWFAYWGQGTLVTVSA
VL: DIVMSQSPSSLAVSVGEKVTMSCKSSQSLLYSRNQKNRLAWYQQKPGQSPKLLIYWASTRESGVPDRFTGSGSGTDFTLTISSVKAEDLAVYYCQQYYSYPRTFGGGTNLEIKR
- OD450 (IL-11 protein [1]): 1.54
- FITC Mean (IL-11 protein [2]): 9070

B6: 3-15D5-3A6 (antibody, human IgG1, kappa, V domains shown)
VH: QVTLKESGPGILQPSQTLSLTCSFSGFSLSSSGMSVGWIRQPSGKGLEWLAHIWWSDDKSYNPALKSRLTISKDTSNNQVFLKIASVVTADTATYYCAREGSLGYGLDYWGQGTTLTVSS
VL: DVLMTQTPLSLPVSLGDQASISCRSSQSIVHTDGNTYLEWYLQKPGQSPKLLIYKVSNRFSGVPDRFSGSGSGTDFTLKISRVEAEDLGVYYCFQGSHVPWTFGGGTKLEIKR
- OD450 (IL-11 protein [1]): 1.69
- FITC Mean (IL-11 protein [2]): 10900

Other lines, results leading:

- Kd (IL-11 protein [3]): 11.2 nM
- koff (IL-11 protein [3]): 0.000516 s⁻¹
- kon (IL-11 protein [3]): 46100 M⁻¹ s⁻¹
B7: VH4 + VL3-scFv (scFv, V domains shown)
VH: QVQLVQSGAEVKKPGASVKVSCKASDYTFTNYWLGWVRQAPGHGLEWIGHIYPGGGYTNYNEKFKGRATLTADTSTSTVYMELSSLRSEDTAVYFCARVRSGNDALDFWGQGTLVTVSS
VL: EIVLTQSPATLSLSPGERATLSCRASESVDEYGISFMNWFQQKPGQAPRLLIYSASNQGSGIPARFSGSGSGTDFTLTISSLEPEDFAVYFCQQSKEVPWTFGGGTKLEIK
notes: Humanized 5-20E11-5F2; CHO supernatant; Called scFv, but heavy and light vectors were co-transfected

- EC50 (IL-11-Fc protein): 10.5 µg/mL
- Kd (IL-11 protein [4]): 9.03 nM
- koff (IL-11 protein [4]): 0.000474 s⁻¹
- kon (IL-11 protein [4]): 52600 M⁻¹ s⁻¹
B8: humanized antibody VH1+VL3, full-length (IgG format) (antibody, V domains shown)
VH: B7 VH with H43Q, I48M, A68V, L70M, A72R, F95Y
VL: B7 VL

- EC50 (IL-11-Fc protein): 11.6 µg/mL
- Kd (IL-11 protein [4]): 12 nM
- koff (IL-11 protein [4]): 0.000597 s⁻¹
- kon (IL-11 protein [4]): 49800 M⁻¹ s⁻¹
B9: humanized antibody VH1+VL2, full-length (IgG format) (antibody, V domains shown)
VH: B7 VH with H43Q, I48M, A68V, L70M, A72R, F95Y
VL: B7 VL with F40Y

- EC50 (IL-11-Fc protein): 12.5 µg/mL
- Kd (IL-11 protein [4]): 10 nM
- koff (IL-11 protein [4]): 0.000545 s⁻¹
- kon (IL-11 protein [4]): 54300 M⁻¹ s⁻¹
B10: humanized antibody VH1+VL4, full-length (IgG format) (antibody, V domains shown)
VH: B7 VH with H43Q, I48M, A68V, L70M, A72R, F95Y
VL: B7 VL with V89M

- Kd (IL-11 protein [3]): 10 nM
- koff (IL-11 protein [3]): 0.000481 s⁻¹
- kon (IL-11 protein [3]): 47900 M⁻¹ s⁻¹
B11: VH4 + VL4-scFv (scFv, V domains shown)
VH: B7 VH
VL: B7 VL with V89M
notes: as for B7
